B1: 101-51-1A3 ATRIMER complex (designed binder)
chain: EPPTQKPKKIVNAKKDVVNTKMFEELKSRLDTLAQEVALLKEQQALQTVCLKGTKVHMKCFLAFTQTKTFHEASEDCISRGGTLSTPQTGSENDALYEYLRQSVGNEAEIWLGLNGSALTNTWVDMTGARIAYKNWEHQPVYQPGGGWGVFGENCAVLSGAANGKWFDKRCRDQLPYICQFGIV
modifications: Forms a homotrimer through the tetranectin coiled coil; one protomer is given.
notes: not shown: C-terminal tag: His/Myc (pANA4) or HA-StrepII (pANA10)
B2: 105-08-1A3 ATRIMER complex (designed binder)
chain: B1 chain with A118P, L119R, N121D, H138T, Q139E, P140I, V141T, Y142A, G145D
modifications: Homotrimer of three identical chains (ATRIMER complex); one chain is given.
notes: as for B1
B3: 101-51-1A9 ATRIMER complex (designed binder)
chain: B1 chain with H138P, Q139A, P140R, V141Q, Y142P, W148F, V150Y
B4: 101-54-4B3 ATRIMER complex (designed binder)
chain: B1 chain with H138L, Q139P, V141P, Y142G, Q143H, G145Q, W148F
B5: 101-51-1A6 ATRIMER complex (designed binder)
chain: B1 chain with H138N, Q139N, P140L, V141S, Y142A, G145R, W148F, V150Y
modifications: Forms a homotrimer through the tetranectin coiled coil; one protomer is given.
notes: as for B1
B6: 105-08-1A4 ATRIMER complex (designed binder)
chain: B1 chain with L119V, H138T, Q139E, P140I, V141T, Y142A, G145D, W148F, V150Y
B7: 105-08-1D3 ATRIMER complex (designed binder)
chain: EPPTQKPKKIVNAKKDVVNTKMFEELKSRLDTLAQEVALLKEQQALQTVCLKGTKVHMKCFLAFTQTKTFHEASEDCISRGGTLSTPQTGSENDALYEYLRQSVGNEAEIWLGLNGSKVTETWVDMTGARIAYKNWETEITAQPDGGFGYFGENCAVLSGAANGKWFDKRCRDQLPYICQFGIV
B8: 101-113-6C102 ATRIMER complex (designed binder)
chain: B1 chain with A118N, L119V, N121Q, H138P, Q139P, V141P, Y142H, Q143H, G145Q, W148F
notes: not shown: C-terminal tag
B9: 101-80-5E8 ATRIMER complex (designed binder)
chain: B1 chain with H138P, Q139P, P140E, V141P, Y142L, Q143H, G145M, W148F
B10: 101-51-1A5 ATRIMER complex (designed binder)
chain: B1 chain with H138N, Q139G, P140H, V141E, Y142P, G145R, W148F, V150Y
modifications: Forms a homotrimer through the tetranectin coiled coil; one protomer is given.
notes: as for B1
B11: 101-54-4B10 ATRIMER complex (designed binder)
chain: B1 chain with H138R, Q139P, V141L, W148F, V150Y
B12: 101-51-1A10 ATRIMER complex (designed binder)
chain: B1 chain with Q139P, P140L, V141P, Y142P, G145S, W148F, V150Y
modifications: Forms a homotrimer through the tetranectin coiled coil; one protomer is given.
notes: as for B1
B13: 101-51-1A8 ATRIMER complex (designed binder)
chain: B1 chain with H138R, Q139T, V141P, Y142W, G145E, W148F, V150Y
modifications: Forms a homotrimer through the tetranectin coiled coil; one protomer is given.
notes: as for B1
B14: 105-08-2C10 ATRIMER complex (designed binder)
chain: B7 chain with K118L, V119L, E121D, Y150V
B15: 101-54-4A12 ATRIMER complex (designed binder)
chain: EPPTQKPKKIVNAKKDVVNTKMFEELKSRLDTLAQEVALLKEQQALQTVCLKGTKVHMKCFLAFTQTKTFHEASEDCISRGGTLSTPQTGSENDALYEYLRQSVGNEAEIWLGLNGSRRSGVWVDMTGARIAYKNWEPPGPAHPQGGFGVFGENCAVLSGAANGKWFDKRCRDQLPYICQFGIV
notes: also called 101-54-4Al2
B16: 105-20-2G5 ATRIMER complex (designed binder)
chain: B7 chain with K118R, V119R, E121D, F148W
B17: 105-59-3B5 ATRIMER complex (designed binder)
chain: B7 chain with K118P, V119I, E121D, Y150V
B18: 105-61-4G3 ATRIMER complex (designed binder)
chain: B7 chain with K118L, V119R, E121D, Y150V
notes: also called 61-p4G3
B19: 105-61-4G5 ATRIMER complex (designed binder)
chain: B7 chain with K118P, V119L, E121N, Y150V
B20: 105-78-2D1 ATRIMER complex (designed binder)
chain: B7 chain with K118L, V119R, E121H, Y150V
B21: 105-20-2F10 ATRIMER complex (designed binder)
chain: B7 chain with K118A, V119R, E121D
notes: as for B1
B22: 105-78-2E6 ATRIMER complex (designed binder)
chain: B7 chain with K118L, V119R, E121N, Y150V
B23: 105-59-3A5 ATRIMER complex (designed binder)
chain: B7 chain with K118L, V119L, E121N, Y150V
modifications: Homotrimer of three identical chains (ATRIMER complex); one chain is given.
notes: as for B1

Numbering of substitutions follows the chain as printed.

The target of one assay is T1, recombinant human IL-23R/Fc chimera (R&D Systems) (human, UniProt Q5VWK5 24-355).
T1 construct: Bought; also called rhIL23RFc
T1 sequence (looked up): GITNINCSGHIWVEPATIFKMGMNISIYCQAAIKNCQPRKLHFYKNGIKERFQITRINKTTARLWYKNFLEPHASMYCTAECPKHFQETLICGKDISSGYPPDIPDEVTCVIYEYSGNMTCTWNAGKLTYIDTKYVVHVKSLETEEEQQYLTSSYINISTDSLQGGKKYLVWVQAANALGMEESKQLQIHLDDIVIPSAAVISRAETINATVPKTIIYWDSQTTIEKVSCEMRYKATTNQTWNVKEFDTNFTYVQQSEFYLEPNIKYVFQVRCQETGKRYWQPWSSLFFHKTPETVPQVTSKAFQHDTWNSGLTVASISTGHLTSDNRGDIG
Description: SPR. How it is done:
A Biacore 3000 biosensor (GE Healthcare) was used to evaluate the interaction of human IL-23R and receptor binders. Immobilization of an anti-human IgG Fc antibody (GE Healthcare) to the CM5 chip (GE Healthcare) was performed using standard amine coupling chemistry, and this modified surface was used to capture a recombinant human IL-23R/Fc fusion protein (R&D Systems). A low-density receptor surface, less than 200 RU, was used for all of the analyses. ATRIMER™ polypeptide complex dilutions (1-500 nM) were injected over the IL-23R surface at 30 μl/min and kinetic constants were derived from the sensorgram data using the Biaevaluation software (version 3.1, GE Healthcare). Data collection was 3 minutes for the association and 5 minutes for dissociation. The anti-human IgG surface was regenerated with a 30s pulse of 3M magnesium chloride. All sensorgrams were double-referenced against an activated and blocked flow-cell as well as buffer injections.
In the case of B1, the Ka worked out at 1.77e+09 M⁻¹, the Kd was 0.565 nM, the off-rate (koff) is 0.000262 s⁻¹ and the kon came to 463000 M⁻¹ s⁻¹.
As for B2, the Ka stood at 2.11e+09 M⁻¹, the Kd amounted to 0.473 nM, the off-rate constant (koff) came to 0.000348 s⁻¹ and the on-rate (kon) was determined as 735000 M⁻¹ s⁻¹.
Regarding B3, the Ka amounted to 1.05e+09 M⁻¹, the Kd was 0.955 nM, the koff turned out to be 0.000329 s⁻¹ and the kon was found to be 345000 M⁻¹ s⁻¹.
On the same counts, the results for B4 are 3.12e+09 M⁻¹, 0.321 nM, 0.000364 s⁻¹ and 1.13e+06 M⁻¹ s⁻¹.
B5: the Ka turned out to be 1.34e+09 M⁻¹, the dissociation constant Kd amounted to 0.746 nM, the dissociation rate constant (koff) was 0.000415 s⁻¹ and the kon is 557000 M⁻¹ s⁻¹.
In the case of B6, the Ka amounted to 8e+08 M⁻¹, the Kd is 1.25 nM, the koff stood at 0.000312 s⁻¹ and the kon worked out at 250000 M⁻¹ s⁻¹.
For B7, the Ka was 7.58e+08 M⁻¹, the equilibrium dissociation constant (Kd) came out at 1.32 nM, the koff is 0.000301 s⁻¹ and the association rate constant (kon) amounted to 228000 M⁻¹ s⁻¹.
Consider B8, for which the Ka was 9.62e+08 M⁻¹, the Kd is 1.04 nM, the off-rate (koff) is 0.000283 s⁻¹ and the kon turned out to be 271000 M⁻¹ s⁻¹.
For the molecule B9, the Ka came out at 2.89e+09 M⁻¹, the dissociation constant Kd was found to be 0.346 nM, the koff is 0.000391 s⁻¹ and the kon was 1.13e+06 M⁻¹ s⁻¹.
With B10, the Ka came to 1.71e+09 M⁻¹, the Kd was determined as 0.584 nM, the koff was determined as 0.000289 s⁻¹ and the on-rate constant (kon) is 495000 M⁻¹ s⁻¹.
As for B11, the Ka was 1.11e+09 M⁻¹, the Kd stood at 0.897 nM, the koff is 0.000429 s⁻¹ and the association rate constant (kon) came to 479000 M⁻¹ s⁻¹.
As to B12, the Ka was 4.85e+08 M⁻¹, the equilibrium dissociation constant (Kd) stood at 2.06 nM, the off-rate (koff) was determined as 0.000345 s⁻¹ and the kon is 167000 M⁻¹ s⁻¹.
On the same counts, the results for B13 are 6.62e+08 M⁻¹, 1.51 nM, 0.000396 s⁻¹ and 262000 M⁻¹ s⁻¹.
Turning to B14, the Ka came out at 1.63e+09 M⁻¹, the Kd came to 0.612 nM, the koff was found to be 0.000371 s⁻¹ and the kon came out at 606000 M⁻¹ s⁻¹.
For B15, the Ka worked out at 2.16e+09 M⁻¹, the Kd stood at 0.463 nM, the off-rate (koff) was 0.000573 s⁻¹ and the kon was 1.24e+06 M⁻¹ s⁻¹.

Another assay concerns the target T1, recombinant human IL-23R/Fc chimera …. The experiment in a line: competition ELISA vs IL-23. How it is done:
Assays were performed generally as follows. Individual wells in Immulon HB2 plates were incubated overnight at 4° C. with 100 μL PBS containing 100 ng of an anti-human IgG Fc (R&D MAB 110 clone 97924). Plates were washed five times with PBS/0.05% Tween 20, and wells were incubated for 1.5 h at RT with 100 μL each of PBS containing 50 ng of recombinant human IL-23R/Fc. […] Competitor was included at a final concentration of 1 μg/mL. After incubation, plates were washed as described and wells were incubated for 40 min at RT with 100 μL each of PBS containing a 1:5000 dilution of streptavidin-HRP conjugate (Pierce catalog no. 21130). After washing, wells were incubated with 100 μL each of TMB (BioFX Lab catalog no. TMBH-1000-0) for up to 30 min at RT. Reactions were stopped with an equal volume of 0.2 M sulfuric acid.
B1: the “Ratio IC50 to 056-53.H4E IC50” value is 1.6.
On the same count and under the same terms, to B16 belongs 5.3; to B17, 0.8; to B2, 1.1.
In the case of B3, the “Ratio IC50 to 056-53.H4E IC50” value came to 2.2.
For B18, the “Ratio IC50 to 056-53.H4E IC50” value was 0.8.
Consider B19, for which the “Ratio IC50 to 056-53.H4E IC50” value was 1.
In the case of B20, the “Ratio IC50 to 056-53.H4E IC50” value amounted to 1.3.
On to B4, for which the “Ratio IC50 to 056-53.H4E IC50” value was found to be 1.
Take B5: the “Ratio IC50 to 056-53.H4E IC50” value worked out at 2.6.
In the case of B21, the “Ratio IC50 to 056-53.H4E IC50” value was 4.2.
Regarding B6, the “Ratio IC50 to 056-53.H4E IC50” value came to 1.6.
In the case of B7, the “Ratio IC50 to 056-53.H4E IC50” value stood at 0.4.
Consider B8, for which the “Ratio IC50 to 056-53.H4E IC50” value is 2.
For the molecule B9, the “Ratio IC50 to 056-53.H4E IC50” value is 0.6.
Turning to B10, the “Ratio IC50 to 056-53.H4E IC50” value was found to be 1.
For the molecule B22, the “Ratio IC50 to 056-53.H4E IC50” value worked out at 1.
For the molecule B11, the “Ratio IC50 to 056-53.H4E IC50” value was found to be 1.4.
As to B12, the “Ratio IC50 to 056-53.H4E IC50” value was 8.7.
Take B23: the “Ratio IC50 to 056-53.H4E IC50” value is 1.2.
Turning to B13, the “Ratio IC50 to 056-53.H4E IC50” value is 3.7.
On the same count and under the same terms, under B14 stands 0.9.
For B15, the “Ratio IC50 to 056-53.H4E IC50” value was found to be 1.1.

These data come from patent publication US20110086806A1 (published 2011).
